Patent US20220048967A1 (published 2022)
Numbered stars: 1 amine (or outer) side, 2 acyl side, 3 side chain; on linkers, the order of the positions; unused ones are H or OH. Square brackets hold non-standard residues; d marks the D form. Side chains are listed from the residue outwards. Ends that are not written are not given here. * marks the point of attachment. C20 diacid = O=C(O)CCCCCCCCCCCCCCCCCCC(=O)*; αMePhe(2-F) = C[C@](N)(Cc1ccccc1F)C(=O)O; γGlu = O=C(O)[C@H](CCC(=O)[*:2])N[*:1]; αMeF = C[C@](N)(Cc1ccccc1)C(=O)O; AEEA = NCCOCCOCC(=O)O; Aib = CC(C)(N)C(=O)O

T1: human gastric inhibitory peptide receptor (GIPR) (human, UniProt P48546 22-466)
T1 sequence (looked up): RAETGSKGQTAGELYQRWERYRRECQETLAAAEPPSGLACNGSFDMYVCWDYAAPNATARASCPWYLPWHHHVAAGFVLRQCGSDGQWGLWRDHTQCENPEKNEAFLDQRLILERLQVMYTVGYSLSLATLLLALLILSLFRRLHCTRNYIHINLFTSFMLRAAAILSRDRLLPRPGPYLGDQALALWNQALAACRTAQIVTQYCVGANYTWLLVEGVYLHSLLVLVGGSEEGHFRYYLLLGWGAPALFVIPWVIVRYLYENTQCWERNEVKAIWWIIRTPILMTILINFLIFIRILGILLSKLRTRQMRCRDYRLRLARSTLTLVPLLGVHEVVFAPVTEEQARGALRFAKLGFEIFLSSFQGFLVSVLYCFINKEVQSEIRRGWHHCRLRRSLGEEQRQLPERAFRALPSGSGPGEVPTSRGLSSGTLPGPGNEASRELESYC

B1: Example 161 (peptide)
peptide: Y[Aib]EGT[αMePhe(2-F)]TSDHSI[αMeF]LDEK([AEEA-AEEA-γGlu-γGlu-C20 diacid])AQ[Aib]TFI[dE]YLIEGGPSSG-NH2
modifications: N-terminus assumed
SMILES: CC[C@H](C)[C@H](NC(=O)[C@H](CC(C)C)NC(=O)[C@H](Cc1ccc(O)cc1)NC(=O)[C@@H](CCC(=O)O)NC(=O)[C@@H](NC(=O)[C@H](Cc1ccccc1)NC(=O)[C@@H](NC(=O)C(C)(C)NC(=O)[C@H](CCC(N)=O)NC(=O)[C@H](C)NC(=O)[C@H](CCCCNC(=O)COCCOCCNC(=O)COCCOCCNC(=O)CC[C@H](NC(=O)CC[C@H](NC(=O)CCCCCCCCCCCCCCCCCCC(=O)O)C(=O)O)C(=O)O)NC(=O)[C@H](CCC(=O)O)NC(=O)[C@H](CC(=O)O)NC(=O)[C@H](CC(C)C)NC(=O)[C@](C)(Cc1ccccc1)NC(=O)[C@@H](NC(=O)[C@H](CO)NC(=O)[C@H](Cc1c[nH]cn1)NC(=O)[C@H](CC(=O)O)NC(=O)[C@H](CO)NC(=O)[C@@H](NC(=O)[C@](C)(Cc1ccccc1F)NC(=O)[C@@H](NC(=O)CNC(=O)[C@H](CCC(=O)O)NC(=O)C(C)(C)NC(=O)[C@@H](N)Cc1ccc(O)cc1)[C@@H](C)O)[C@@H](C)O)[C@@H](C)CC)[C@@H](C)O)[C@@H](C)CC)C(=O)N[C@@H](CCC(=O)O)C(=O)NCC(=O)NCC(=O)N1CCC[C@H]1C(=O)N[C@@H](CO)C(=O)N[C@@H](CO)C(=O)NCC(N)=O
B2: Example 167 (peptide)
peptide: Y[Aib]EGT[αMePhe(2-F)]TSDHSI[αMeF]LDEK([AEEA-AEEA-γGlu-C20 diacid])AQ[Aib]TFI[dE]YLIEGGPSSG-NH2
modifications: N-terminus assumed
SMILES: CC[C@H](C)[C@H](NC(=O)[C@H](CC(C)C)NC(=O)[C@H](Cc1ccc(O)cc1)NC(=O)[C@@H](CCC(=O)O)NC(=O)[C@@H](NC(=O)[C@H](Cc1ccccc1)NC(=O)[C@@H](NC(=O)C(C)(C)NC(=O)[C@H](CCC(N)=O)NC(=O)[C@H](C)NC(=O)[C@H](CCCCNC(=O)COCCOCCNC(=O)COCCOCCNC(=O)CC[C@H](NC(=O)CCCCCCCCCCCCCCCCCCC(=O)O)C(=O)O)NC(=O)[C@H](CCC(=O)O)NC(=O)[C@H](CC(=O)O)NC(=O)[C@H](CC(C)C)NC(=O)[C@](C)(Cc1ccccc1)NC(=O)[C@@H](NC(=O)[C@H](CO)NC(=O)[C@H](Cc1c[nH]cn1)NC(=O)[C@H](CC(=O)O)NC(=O)[C@H](CO)NC(=O)[C@@H](NC(=O)[C@](C)(Cc1ccccc1F)NC(=O)[C@@H](NC(=O)CNC(=O)[C@H](CCC(=O)O)NC(=O)C(C)(C)NC(=O)[C@@H](N)Cc1ccc(O)cc1)[C@@H](C)O)[C@@H](C)O)[C@@H](C)CC)[C@@H](C)O)[C@@H](C)CC)C(=O)N[C@@H](CCC(=O)O)C(=O)NCC(=O)NCC(=O)N1CCC[C@H]1C(=O)N[C@@H](CO)C(=O)N[C@@H](CO)C(=O)NCC(N)=O
B3: Example 164 (peptide)
peptide: YXEGTXTSDHSIXLDEKAQXTFIXYLIXGGPSSGAPPPS
modifications: Y-Aib-EGT-αMeF(2F)-TSDHSI-αMeF-LDEK((2-[2-(2-Amino-ethoxy)-ethoxy]-acetyl)2-(γ-Glu)-CO-(CH2)18-CO2H)AQ-Aib-TFI-(D-Glu)-YLI-(D-Glu)-GGPSSGAPPPS-NH2
B4: Example 166 (peptide)
peptide: Y[Aib]EGT[αMePhe(2-F)]TSDHSI[αMeF]LDEK([AEEA-AEEA-γGlu-C20 diacid])AQ[Aib]TFI[dE]YLIEGG-NH2
modifications: N-terminus assumed
SMILES: CC[C@H](C)[C@H](NC(=O)[C@H](CC(C)C)NC(=O)[C@H](Cc1ccc(O)cc1)NC(=O)[C@@H](CCC(=O)O)NC(=O)[C@@H](NC(=O)[C@H](Cc1ccccc1)NC(=O)[C@@H](NC(=O)C(C)(C)NC(=O)[C@H](CCC(N)=O)NC(=O)[C@H](C)NC(=O)[C@H](CCCCNC(=O)COCCOCCNC(=O)COCCOCCNC(=O)CC[C@H](NC(=O)CCCCCCCCCCCCCCCCCCC(=O)O)C(=O)O)NC(=O)[C@H](CCC(=O)O)NC(=O)[C@H](CC(=O)O)NC(=O)[C@H](CC(C)C)NC(=O)[C@](C)(Cc1ccccc1)NC(=O)[C@@H](NC(=O)[C@H](CO)NC(=O)[C@H](Cc1c[nH]cn1)NC(=O)[C@H](CC(=O)O)NC(=O)[C@H](CO)NC(=O)[C@@H](NC(=O)[C@](C)(Cc1ccccc1F)NC(=O)[C@@H](NC(=O)CNC(=O)[C@H](CCC(=O)O)NC(=O)C(C)(C)NC(=O)[C@@H](N)Cc1ccc(O)cc1)[C@@H](C)O)[C@@H](C)O)[C@@H](C)CC)[C@@H](C)O)[C@@H](C)CC)C(=O)N[C@@H](CCC(=O)O)C(=O)NCC(=O)NCC(N)=O
B5: Example 163 (peptide)
peptide: H[Aib]EGT[αMePhe(2-F)]TSDYSI[αMeF]LDEK([AEEA-AEEA-γGlu-C20 diacid])AQ[Aib]EFIEYLIEGGPSSGAPPPS-NH2
modifications: N-terminus assumed
SMILES: CC[C@H](C)[C@H](NC(=O)[C@H](CC(C)C)NC(=O)[C@H](Cc1ccc(O)cc1)NC(=O)[C@H](CCC(=O)O)NC(=O)[C@@H](NC(=O)[C@H](Cc1ccccc1)NC(=O)[C@H](CCC(=O)O)NC(=O)C(C)(C)NC(=O)[C@H](CCC(N)=O)NC(=O)[C@H](C)NC(=O)[C@H](CCCCNC(=O)COCCOCCNC(=O)COCCOCCNC(=O)CC[C@H](NC(=O)CCCCCCCCCCCCCCCCCCC(=O)O)C(=O)O)NC(=O)[C@H](CCC(=O)O)NC(=O)[C@H](CC(=O)O)NC(=O)[C@H](CC(C)C)NC(=O)[C@](C)(Cc1ccccc1)NC(=O)[C@@H](NC(=O)[C@H](CO)NC(=O)[C@H](Cc1ccc(O)cc1)NC(=O)[C@H](CC(=O)O)NC(=O)[C@H](CO)NC(=O)[C@@H](NC(=O)[C@](C)(Cc1ccccc1F)NC(=O)[C@@H](NC(=O)CNC(=O)[C@H](CCC(=O)O)NC(=O)C(C)(C)NC(=O)[C@@H](N)Cc1c[nH]cn1)[C@@H](C)O)[C@@H](C)O)[C@@H](C)CC)[C@@H](C)CC)C(=O)N[C@@H](CCC(=O)O)C(=O)NCC(=O)NCC(=O)N1CCC[C@H]1C(=O)N[C@@H](CO)C(=O)N[C@@H](CO)C(=O)NCC(=O)N[C@@H](C)C(=O)N1CCC[C@H]1C(=O)N1CCC[C@H]1C(=O)N1CCC[C@H]1C(=O)N[C@@H](CO)C(N)=O
B6: Example 162 (peptide)
peptide: Y[Aib]EGT[αMePhe(2-F)]TSDHSI[αMeF]LDEK([AEEA-AEEA-γGlu-γGlu-C20 diacid])AQ[Aib]TFI[dE]HLIEGGPSSG-NH2
modifications: N-terminus assumed
SMILES: CC[C@H](C)[C@H](NC(=O)[C@H](CC(C)C)NC(=O)[C@H](Cc1c[nH]cn1)NC(=O)[C@@H](CCC(=O)O)NC(=O)[C@@H](NC(=O)[C@H](Cc1ccccc1)NC(=O)[C@@H](NC(=O)C(C)(C)NC(=O)[C@H](CCC(N)=O)NC(=O)[C@H](C)NC(=O)[C@H](CCCCNC(=O)COCCOCCNC(=O)COCCOCCNC(=O)CC[C@H](NC(=O)CC[C@H](NC(=O)CCCCCCCCCCCCCCCCCCC(=O)O)C(=O)O)C(=O)O)NC(=O)[C@H](CCC(=O)O)NC(=O)[C@H](CC(=O)O)NC(=O)[C@H](CC(C)C)NC(=O)[C@](C)(Cc1ccccc1)NC(=O)[C@@H](NC(=O)[C@H](CO)NC(=O)[C@H](Cc1c[nH]cn1)NC(=O)[C@H](CC(=O)O)NC(=O)[C@H](CO)NC(=O)[C@@H](NC(=O)[C@](C)(Cc1ccccc1F)NC(=O)[C@@H](NC(=O)CNC(=O)[C@H](CCC(=O)O)NC(=O)C(C)(C)NC(=O)[C@@H](N)Cc1ccc(O)cc1)[C@@H](C)O)[C@@H](C)O)[C@@H](C)CC)[C@@H](C)O)[C@@H](C)CC)C(=O)N[C@@H](CCC(=O)O)C(=O)NCC(=O)NCC(=O)N1CCC[C@H]1C(=O)N[C@@H](CO)C(=O)N[C@@H](CO)C(=O)NCC(N)=O
B7: Example 165 (peptide)
peptide: Y[Aib]EGT[αMePhe(2-F)]TSDHSI[αMeF]LDEK([AEEA-AEEA-γGlu-C20 diacid])AQ[Aib]TFI[dE][αMeF]LI[dE]GGPSSGAPPPS-NH2
modifications: N-terminus assumed
SMILES: CC[C@H](C)[C@H](NC(=O)[C@H](CC(C)C)NC(=O)[C@](C)(Cc1ccccc1)NC(=O)[C@@H](CCC(=O)O)NC(=O)[C@@H](NC(=O)[C@H](Cc1ccccc1)NC(=O)[C@@H](NC(=O)C(C)(C)NC(=O)[C@H](CCC(N)=O)NC(=O)[C@H](C)NC(=O)[C@H](CCCCNC(=O)COCCOCCNC(=O)COCCOCCNC(=O)CC[C@H](NC(=O)CCCCCCCCCCCCCCCCCCC(=O)O)C(=O)O)NC(=O)[C@H](CCC(=O)O)NC(=O)[C@H](CC(=O)O)NC(=O)[C@H](CC(C)C)NC(=O)[C@](C)(Cc1ccccc1)NC(=O)[C@@H](NC(=O)[C@H](CO)NC(=O)[C@H](Cc1c[nH]cn1)NC(=O)[C@H](CC(=O)O)NC(=O)[C@H](CO)NC(=O)[C@@H](NC(=O)[C@](C)(Cc1ccccc1F)NC(=O)[C@@H](NC(=O)CNC(=O)[C@H](CCC(=O)O)NC(=O)C(C)(C)NC(=O)[C@@H](N)Cc1ccc(O)cc1)[C@@H](C)O)[C@@H](C)O)[C@@H](C)CC)[C@@H](C)O)[C@@H](C)CC)C(=O)N[C@H](CCC(=O)O)C(=O)NCC(=O)NCC(=O)N1CCC[C@H]1C(=O)N[C@@H](CO)C(=O)N[C@@H](CO)C(=O)NCC(=O)N[C@@H](C)C(=O)N1CCC[C@H]1C(=O)N1CCC[C@H]1C(=O)N1CCC[C@H]1C(=O)N[C@@H](CO)C(N)=O

Assays:
[1] = target: T1, human gastric inhibitory peptide …; assay: cell-based or functional assay
[2] = target: human GLP-1 receptor (GLP-1R) (human, UniProt P43220 24-463); assay: cell-based or functional assay

| Binder | hGIPR cAMP EC50 ratio [1] | hGIPR cAMP Rel EC50 [1] [nM] | hGLP1R cAMP EC50 ratio [2] | hGLP1R cAMP Rel EC50 [2] [nM] |
| --- | --- | --- | --- | --- |
| B1 | 0.706 | 0.254 | 0.0121 | 4.8 |
| B2 | 0.291 | 0.617 | 0.0487 | 1.2 |
| B3 | 0.0581 | 3.09 | 0.00373 | 15.6 |
| B4 | 0.504 | 0.355 | 0.0143 | 4.08 |
| B5 | 1.29 | 0.121 | 1.54 | 0.0316 |
| B6 | 0.0393 | 4.56 | 0.00161 | 36 |
| B7 | 0.172 | 1.04 | 0.01 | 5.81 |
